Laboratory results taken from patent US20030059769, “High affinity nucleic acid ligands to lectins” (published 2003).
Where a chain is given by its changes, count along the chain named.

Tests used:
L-selectin (LS-Rg) [1] = biological target: T1, L-selectin (LS-Rg) (Homo sapiens, UniProt P14151 P14151:39-332); assay: filter; 37 C; conditions: tags: human IgG2 Fc fusion
T1 sequence: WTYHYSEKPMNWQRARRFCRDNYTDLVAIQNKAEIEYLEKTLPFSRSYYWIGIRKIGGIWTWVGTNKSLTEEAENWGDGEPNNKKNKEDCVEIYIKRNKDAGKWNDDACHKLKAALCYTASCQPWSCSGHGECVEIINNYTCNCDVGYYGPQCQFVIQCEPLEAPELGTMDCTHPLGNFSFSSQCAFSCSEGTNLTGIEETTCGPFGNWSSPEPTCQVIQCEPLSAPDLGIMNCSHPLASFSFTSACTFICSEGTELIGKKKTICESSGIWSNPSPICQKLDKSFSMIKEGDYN
Procedure: (§1) Unless otherwise indicated, all materials used in the 2′-F RNA SELEX against the L-selectin/IgG2 chimera, LS-Rg, were identical to those of Examples 7, paragraph A and 13, paragraph A. SHMCK-140 buffer, used for all SELEX and binding experiments, was 1 mM CaCl₂, 1 mM MgCC₂, 140 mM NaCl, 5 mM KCl. and 20 mM HEPES, pH 7.4. A soluble form of L-selectin, corresponding to the extracellular domains, was purchased from R&D Systems and used for some nitrocellulose filter binding experiments.
(§2) As described in SELEX Patent Applications, a nitrocellulose filter partitioning method was used to determine the affinity of RNA ligands for LS-Rg and for other proteins. Filter discs (nitrocellulose/cellulose acetate mixed matrix, 0.45 μm pore size, Millipore) were placed on a vacuum manifold and washed with 3 ml of SHMCK 140 buffer under vacuum. Reaction mixtures, containing ³²P labeled RNA pools and unlabeled LS-Rg, were incubated in SHMCK 140 for 10-20 min at 37° C., and then immediately washed with 3 ml SHMCK 140. The filters were air-dried and counted in a Beckman LS6500 liquid scintillation counter without fluor. Alternatively, binding studies employed 96 well micro-titer manifolds essentially as described in Example 13, paragraph E.
(§3) These calculations assume two ligand binding sites per chimera.

[2] = biological target: T2, L-selectin on PBMC / lymphocytes (Homo sapiens, UniProt P14151 P14151:39-372); assay: flow; competition with FITC-LD201T1
T2 sequence: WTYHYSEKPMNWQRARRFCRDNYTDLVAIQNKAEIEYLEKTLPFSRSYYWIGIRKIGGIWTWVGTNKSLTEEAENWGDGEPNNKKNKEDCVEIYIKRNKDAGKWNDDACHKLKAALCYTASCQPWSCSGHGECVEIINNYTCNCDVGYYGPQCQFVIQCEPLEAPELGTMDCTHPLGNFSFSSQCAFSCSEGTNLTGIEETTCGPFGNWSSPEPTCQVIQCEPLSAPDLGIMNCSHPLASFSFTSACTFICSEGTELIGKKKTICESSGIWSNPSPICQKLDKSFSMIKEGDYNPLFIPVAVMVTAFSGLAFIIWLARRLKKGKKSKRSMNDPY
Procedure: Binding of evolved ligands to L-selectin presented in the context of a cell surface was tested by flow cytometry experiments with human lymphocytes. Briefly, peripheral blood mononuclear cells (PBMC) were purified on histoplaque by standard techniques. […] Fluorescent staining of cells was quantified on a FACSCaliber fluorescent activated cell sorter (Becton Dickinson, San Jose, Calif.). The affinity of the 2′-F competitor was calculated from the flurorescence inhibition curves.
The ability of full length 2′-F ligands to bind to L-selectin presented in the context of a cell surface was tested by competition-flow cytometry experiments with human peripheral blood lymphocytes.

soluble L-selectin [3] = biological target: T3, soluble L-selectin (Homo sapiens, UniProt P14151 P14151:39-332); assay: filter; 37 C, soluble L-selectin; conditions: tags: R&D Systems; label: 32P
T3 sequence: T1 sequence
Procedure: as §1, §2

soluble L-selectin [4] = biological target: T3, soluble L-selectin; assay: filter; binding undetectable, 37 C; conditions: tags: R&D Systems
soluble L-selectin [5] = biological target: T3, soluble L-selectin; assay: filter; 37 C; conditions: tags: R&D Systems
Procedure: as §1, §2, §3

[6] = biological target: T4, Wheat germ agglutinin (WGA) (Triticum vulgare, UniProt P10968 P10968:27-197); assay: filter; HBSS, room temperature; conditions: tags: E Y Laboratories
T4 sequence: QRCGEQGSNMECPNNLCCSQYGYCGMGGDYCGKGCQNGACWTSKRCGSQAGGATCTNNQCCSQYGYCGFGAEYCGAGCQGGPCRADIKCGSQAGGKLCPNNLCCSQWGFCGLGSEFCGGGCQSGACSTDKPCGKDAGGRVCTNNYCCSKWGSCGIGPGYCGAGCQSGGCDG
Procedure: As described in SEIEX patent applications, a nitrocellulose filter partitioning method was used to determine the affinity of RNA ligands for WGA and for other proteins. Filter discs (nitrocellulose/cellulose acetate mixed matrix, 0.45 μm pore size, Millipore; or pure nitrocellulose, 0.45 μm pore size, Bio-Rad) were placed on a vacuum manifold and washed with 4 ml of HBSS buffer under vacuum. Reaction mixtures, containing ³²P labeled RNA pools and unlabeled WGA, were incubated in HBSS for 10 min at room temperature, filtered, and then imnmediately washed with 4 ml HBSS. The filters were air-dried and counted in a Beckman LS6500 liquid scintillation counter without fluor.
The dissociation constants for representative members of families 1-9 and orphan ligands were determined by nitrocellulose filter binding experiments and are listed in Table 3. These calculations assume one RNA ligand binding site per WGA monomer.

L-selectin (LS-Rg) [7] = biological target: T1, L-selectin (LS-Rg); assay: inhibition; sialyl-LewisX competition ELISA; conditions: tags: human IgG2 Fc fusion; chain copies: 2 (stated dimer)
Procedure: SLe^X-BSA (Oxford GlycoSystems, Oxford, UK) in 1X PBS, without CaCl₂, and MgCl₂, (GIBCO/BRL) was immobilized at 100 ng/well onto a microtiter plate by overnight incubation at […]. The wells were blocked for 1 h with the assay buffer consisting of 20 mM HEPES, 111 mM NaCl, 1 mM CaCl₂, 1 mM MgCl₂, 5 mM KCl, 8.9 mM NaOH, final pH 8, and 1% globulin-free BSA (Sigma). The reaction mixtures, incubated for 90 min with orbital shaking, contained 5 nM L-Selectin-Rg, a 1:100 dilution of anti-human IgG-peroxidase conjugate (Sigma), and 0 - 50 ruM of competitor in assay buffer. After incubation, the plate was washed with BSA-free assay buffer to remove unbound chimera-antibody complex and incubated for 25 min with O-phenylenediamine dihydrochloride peroxidase substrate (Sigma) by shaking in the dark at 22°0 C. Absorbance was read at 450 nm on a Bio-Kinetics Reader, Model EL312e (Bio-Tek Instruments, Laguna Hills, Calif.). Values shown represent the mean ±s.e from duplicate, or triplicate, samples from one representative experiment.
Sialyl Lewis^X is the minimal carbohydrate ligand bound by selecting.

[8] = biological target: T2, L-selectin on PBMC / lymphocytes; assay: flow; half-saturation; conditions: label: 5' fluorescein
From the text: A variety of monomeric nucleic acid ligands and multivalent Complexes have been examined in flow cytometry.

[9] = chain copies: homodimer, label: 32P
[10] = chain copies: 2 (stated homodimer)

B1: LF1614 (ssRNA)
RNA: GGGAGGACGAUGCGGCAAACAAGCUCAAAUGACGUGUUUUUCAAGUCCUUGUUGUCAGACGACUCGCCCGA
modifications: 2'-F C and U
L-selectin (LS-Rg) [1]; chain copies: 2 (stated dimer)
  Kd: 0.17 nM

B2: LF1618 (ssRNA)
RNA: GGGAGGACGAUGCGGUUAGCCUACACUCUAGGUUCAGUUUUCGAAUCUUCCACCGCAGACGACUCGCCCGA
modifications: 2'-F C and U [all C and U 2'-F; W in the 3' fixed region (cagacgacucgcccga) = A]
[2]
  Kd: 25 nM

B3: LF1808 (ssRNA)
RNA: GGGAGGACGAUGCGGCAUGGUCUUAGGCGACGCGUUUAUAUCGAGUCACCAUGCUCAGACGACUCGCCCGA
modifications: 2'-F C and U
L-selectin (LS-Rg) [1]; chain copies: 2 (stated dimer)
  Kd: 0.6 nM

B4: LF1527 (ssRNA)
RNA: GGGAGGACGAUGCGGACCCUCAAAUAGCGUGCAUUUCAAGCUGGUCAGACGACUCGCCCGA
modifications: 2'-F C and U
L-selectin (LS-Rg) [1]; chain copies: 2 (stated dimer)
  Kd: 0.32 nM

B5: LF1529 (ssRNA)
RNA: B4 RNA with G27A, C32U, A33C, C41U
modifications: 2'-F C and U
L-selectin (LS-Rg) [1]; chain copies: 2 (stated dimer)
  Kd: 0.6 nM

B6: LF1817 (ssRNA)
RNA: GGGAGGACGAUGCGGUGCUUAAACAACGCGUGAAUCGAGUUCAUCCACUCCUCCUCAGACGACUCGCCCGA
modifications: 2'-F on all C and U
Soluble L-selectin [3]
  Kd: 2.3 nM

B7: LF1816 (ssRNA)
RNA: GGGAGGACGAUGCGGUGCUAUUCUUAAGCGGCGUGUAAAUCAAGCUAGAUCAUCGUCAGACGACUCGCCCGA
modifications: 2'-F C and U
Soluble L-selectin [4]
  binding result: no binding

B8: LF1815 (ssRNA)
RNA: GGGAGGACGAUGCGGCCAUCGGUCUUGGGCAACGCGUUUUCGAGUUACCUAUGGUCAGACGACUCGCCCGA
modifications: 2'-F C and U
Soluble L-selectin [5]
  Kd: 0.18 nM

B9: WGA ligand 11.6 (ssRNA)
RNA: GGGAAAAGCGAAUCAUACACAAGACUGGGGAGCAGGAUAUGAGAUGUGCGGGGCAAUGGAGUCGUGACGAACCGCUCCGCCAGAGACCAACCGAGAA
modifications: 2'-NH2 on all C and U
[6]; [9]
  Kd: 702 nM

B10: LF1516 (ssRNA)
RNA: GGGAGGACGAUGCGGUCAUUCUCUAAAAAAGUAUUCCGUACCUCCACAGACGACUCGCCCGA
modifications: 2'-F on all C and U
Soluble L-selectin [3]
  Kd: 1.3 nM

B11: LF1521 (ssRNA)
RNA: GAGGACGAUGCGGGCUCUUAAGCAACGUGUUAUCAAGUUAGCCCAGACGACUCGCCCGA
modifications: 2'-F C and U
Soluble L-selectin [5]
  Kd: 0.25 nM

B12: WGA ligand 6.5 (ssRNA)
RNA: GGGAAAAGCGAAUCAUACACAAGAGUCCCUAGGGAUGCAACGGGCAGCAUUCGCAUAGGAGUAAUCGGAGGUCGCUCCGCCAGAGACCAACCGAGAA
modifications: 2'-NH2 C and U
[6]; [10]
  Kd: 678 nM

B13: LF1528 (ssRNA)
RNA: GGGAGGACGAUGCGGUUAGGUCAAUGAUCUUAGUUUUCGAUUCGUCAGACGACUCGCCCGA
modifications: 2'-F C and U
Soluble L-selectin [4]
  binding result: no binding

## AGCTGGCGGTACGGGCCGTGCACCCACTTACCTGGGAAGTGAGCTTA (ssDNA) [LD196T1]
L-selectin (LS-Rg) [7]
  IC50: ~3 nM

B14: LF1712 (ssRNA)
RNA: GGGAGGACGAUGCGGGAUCUUAAGCAGUGCGUUAUUCGAACUAUCCCAGACGACUCGCCCGA
modifications: 2'-F C and U
Soluble L-selectin [5]
  Kd: 0.065 nM

B15: LD201T1 branched dimer (ssDNA)
DNA: TAGCCAAGGTAACCAGTACAAGGTGCTAAACGTAATGGCTTCGGCTTAC
modifications: two copies linked 3' ends via five-unit ethylene glycol spacers to 3'-3' symmetric linker
[8]
  EC50: ~0.15 nM

B16: WGA ligand 6.23 (ssRNA)
RNA: GGGAAAAGCGAAUCAUACACAAGACUCGGCGGGAAUCGAAAGUGUACUGAAUUAGAACGGUGGGCCUGCUCAUCGUGCUCCGCCAGAGACCAACCGAGAA
modifications: 2'-NH2 C and U
[6]; [10]
  Kd: 824 nM

## TAGCCATTCACCATGGCCCCTTCCTACGTATGTTCTGCGGGTGGCTTA (ssDNA) [LD174T1]
L-selectin (LS-Rg) [7]
  IC50: ~3 nM

B17: LF1708 (ssRNA)
RNA: GGGAGGACGAUGCGGAUCUUAAGCAGCGCGUCAAUCGAGCUAACCCAGACGACUCGCCCGAG
modifications: 2'-F on all C and U
L-selectin (LS-Rg) [1]; chain copies: dimer, label: 32P
  Kd: 70 nM

B18: LF1613 (ssRNA)
RNA: GGGAGGACGAUGCGGUGCUAUUCUUAAGCGGCGUGUUUUUCAAGCCAAUAUCAUCAGACGACUCGCCCGA
modifications: 2'-F C and U
[2]
  Kd: 0.2 nM

B19: LF1536 (ssRNA)
RNA: GGGAAGACGAUGCGGCGCUCAAAUAAUGCGUUAAUCGAAUUCGCCCAGACGACUCGCCCGA
modifications: 2'-F C and U
Soluble L-selectin [5]
  Kd: 0.22 nM

B20: WGA ligand 6.9 (ssRNA)
RNA: GGGAAAAGCGAAUCAUACACAAGACUCGGCGGGAACGAAGUGUGUGAGUAACGAUCACUUGGUACUAAAAGCCCGCUCCGCCAGAGACCAACCGAGAA
modifications: 2'-NH2 on all C and U
[6]; [9]
  Kd: 396 nM

B21: LF1513 (ssRNA)
RNA: GGGAGGACGAUGCGGGCUCUUCAGCAACGUGUUAUCAAGUUAGCCCAGACGACUCGCCCGA
modifications: 2'-F C and U
[2]
  Kd: 4 nM

B22: LF1514 (ssRNA)
RNA: GGGAGGACGAUGCGGUACCUCAAAUUGCGUGUUUUCAAGCAGUAUCAGACGACUCGCCCGA
modifications: 2'-F C and U
[2]
  Kd: 0.8 nM
